Literature values, collected in publication PMC9020725.

What was measured:
[1] = molecular target: beta-spectrin repeats 10-13 (Homo sapiens) (UniProt P11277)
[2] = molecular target: ankyrin band 3 binding domain (Homo sapiens) (UniProt P16157)
Chain of UniProt P16157 (P16157 1-827): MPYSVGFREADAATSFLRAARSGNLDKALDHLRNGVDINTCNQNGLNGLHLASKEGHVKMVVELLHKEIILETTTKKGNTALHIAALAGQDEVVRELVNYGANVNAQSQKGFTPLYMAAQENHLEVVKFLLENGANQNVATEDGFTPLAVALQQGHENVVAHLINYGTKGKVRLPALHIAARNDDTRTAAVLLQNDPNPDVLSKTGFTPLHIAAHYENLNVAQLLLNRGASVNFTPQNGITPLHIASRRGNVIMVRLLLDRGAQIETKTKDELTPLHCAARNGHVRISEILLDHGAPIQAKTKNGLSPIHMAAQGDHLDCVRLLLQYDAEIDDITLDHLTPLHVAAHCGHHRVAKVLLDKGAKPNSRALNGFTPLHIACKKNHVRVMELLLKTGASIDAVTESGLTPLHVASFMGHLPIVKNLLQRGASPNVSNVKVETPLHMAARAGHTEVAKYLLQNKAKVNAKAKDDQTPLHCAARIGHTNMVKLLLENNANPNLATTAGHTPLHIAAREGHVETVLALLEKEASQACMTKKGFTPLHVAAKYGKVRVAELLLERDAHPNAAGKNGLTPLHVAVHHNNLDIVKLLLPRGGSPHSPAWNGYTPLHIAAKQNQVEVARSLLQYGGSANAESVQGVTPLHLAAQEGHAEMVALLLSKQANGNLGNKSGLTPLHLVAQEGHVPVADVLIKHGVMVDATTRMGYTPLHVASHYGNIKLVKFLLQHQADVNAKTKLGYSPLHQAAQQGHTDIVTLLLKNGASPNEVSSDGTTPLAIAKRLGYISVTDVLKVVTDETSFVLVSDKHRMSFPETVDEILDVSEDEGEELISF

Chain of UniProt P11277 (P11277 1275-1688): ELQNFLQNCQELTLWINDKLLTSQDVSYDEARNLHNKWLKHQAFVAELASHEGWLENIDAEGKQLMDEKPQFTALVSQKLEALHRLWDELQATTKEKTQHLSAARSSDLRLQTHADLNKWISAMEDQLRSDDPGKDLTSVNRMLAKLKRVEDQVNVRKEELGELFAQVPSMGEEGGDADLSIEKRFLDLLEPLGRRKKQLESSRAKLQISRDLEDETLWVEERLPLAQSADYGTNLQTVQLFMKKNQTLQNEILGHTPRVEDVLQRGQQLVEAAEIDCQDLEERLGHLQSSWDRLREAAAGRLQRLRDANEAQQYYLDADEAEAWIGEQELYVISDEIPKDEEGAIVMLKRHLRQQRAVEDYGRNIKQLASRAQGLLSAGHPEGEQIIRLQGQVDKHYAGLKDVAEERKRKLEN

## KAHRP (from UniProt P09346)
[1]
  Kd: 50 µM
[2]
  Kd: 1.55 µM
